Values quoted from earlier work in publication PMC8985225.

Target: CaMKII kinase domain (Caenorhabditis elegans) (UniProt O62305)

- Kd: > 100 µM
Substance: CaMKII kinase domain (from UniProt O62305)
